One molecule from CN114106163A (ANYUAN MEDICINE SCIENCE AND TECH SHANGHAI LIMITED COMPANY, dated 2022) can be followed below.

By IC50 is commonly meant the concentration needed to halve the response being measured. Broadly, the EC50 is the concentration needed to bring the measured effect to its halfway point.

One assay addresses T1, 刺突S蛋白-鼠Fc融合蛋白 (S-mFc) (SARS-CoV-2; mouse, UniProt P0DTC2 14-1213).
T1 construct: domain: S蛋白全长区段
Put plainly: FACS, blocking of S-mFc binding to 293T-ACE2 cells.

For assay [1], the target named is T2, SARS-CoV-2 S1蛋白 (ACRO Biosystems) (SARS-CoV-2, UniProt P0DTC2 16-685).
T2 construct: domain: S1
The assay can be described thus: competition ELISA, S1 coated, HRP-hACE2-Fc as competitor. (In general: In an ELISA, binding on a coated surface is turned into a signal by an enzyme label.)

B1: 人源化抗体hS1B-30-3 (humanized antibody hS1B-30-3) (antibody, V domains shown)
VH: EVQLVESGGGLVQPGGSLRLSCAASGFTFSDAWMDWVRQAPGKGLDWVAQIRNKANSHATNYADSVKGRFTISRDDSKNSVYLQMNSLKTEDTAVYYCIRGLTGYVLDYWGQGTTVTVSS
VL: DIQMTQSPSSLSASVGDRVTITCKASQNVRTAVAWYQQKPGQSPKALIFLASNRHTGVPDRFSGSGSGTDFTLTISSLQPEDFATYFCLQHWNYPLTFGGGTKVEIKR
As for B1, the half-inhibitory concentration (IC50) with 刺突S蛋白-鼠Fc融合蛋白 (S-mFc) is 0.00691 µg/mL. In addition, the EC50 in assay [1] was 0.0331 µg/mL.
